In PMC12419008:

Assays:
Assay in all cases: SPR
FcγRIIIa (V158) (human) = molecular target: FcγRIIIa (V158) (human)
FcγRI (human) = FcγRI (human) (UniProt P12314)
FcγRIIIa (F158) (human) = FcγRIIIa (F158) (human) (UniProt P08637)
[1] = molecular target: APG777 (human (humanized IgG1))
FcγRIIb (human) = FcγRIIb (human) (UniProt P31994)
FcγRIIa (H131) (human) = FcγRIIa (H131) (human) (UniProt P12318)
FcγRIIa (R131) (human) = molecular target: FcγRIIa (R131) (human)
Chain of FcγRIIa (R131) (human) (P12318 34-217): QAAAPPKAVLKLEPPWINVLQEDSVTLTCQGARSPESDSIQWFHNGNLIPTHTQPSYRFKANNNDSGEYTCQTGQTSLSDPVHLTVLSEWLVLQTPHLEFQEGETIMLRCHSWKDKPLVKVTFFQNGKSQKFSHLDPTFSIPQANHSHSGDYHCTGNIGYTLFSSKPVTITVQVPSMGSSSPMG

Chain of UniProt P31994 (P31994 43-217): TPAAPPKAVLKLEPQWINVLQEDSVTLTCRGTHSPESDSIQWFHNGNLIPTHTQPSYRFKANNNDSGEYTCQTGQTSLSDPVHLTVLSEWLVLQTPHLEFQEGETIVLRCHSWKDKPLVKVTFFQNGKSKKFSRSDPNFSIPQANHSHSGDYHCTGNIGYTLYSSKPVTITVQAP
Chain of FcγRIIIa (V158) (human) (P08637 17-208): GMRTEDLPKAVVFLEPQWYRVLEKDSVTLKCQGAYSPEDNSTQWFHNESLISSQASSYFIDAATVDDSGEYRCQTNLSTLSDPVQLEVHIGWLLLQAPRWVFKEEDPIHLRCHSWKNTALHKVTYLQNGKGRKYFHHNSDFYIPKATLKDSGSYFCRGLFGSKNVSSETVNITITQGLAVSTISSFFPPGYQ
Chain of UniProt P12314 (P12314 16-292): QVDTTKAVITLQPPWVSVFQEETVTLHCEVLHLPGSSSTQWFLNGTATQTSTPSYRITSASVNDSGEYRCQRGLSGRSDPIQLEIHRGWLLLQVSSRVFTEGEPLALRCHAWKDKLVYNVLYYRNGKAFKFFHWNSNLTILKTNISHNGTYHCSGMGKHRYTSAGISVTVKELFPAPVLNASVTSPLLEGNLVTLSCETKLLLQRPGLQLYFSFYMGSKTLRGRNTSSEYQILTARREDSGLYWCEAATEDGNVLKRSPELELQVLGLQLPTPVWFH

Kd (FcγRIIIa (V158) (human)) [µM] | Kd (FcγRI (human)) [µM] | Kd (FcγRIIIa (F158) (human)) [µM] | Kd [1] [µM] | Kd (FcγRIIb (human)) [µM] | Kd (FcγRIIa (H131) (human)) [µM] | Kd (FcγRIIa (R131) (human)) [µM] | Substance
12.1 | 7.88 | 56.2 |  |  |  |  | APG777 (antibody)
 |  |  | 0.0944 |  |  |  | human neonatal Fc receptor (huFcRn) (from UniProt P55899 24-365)
0.193 |  | 0.957 |  | 15.3 | 2.93 | 5.95 | rituximab (antibody)
